In the DeepSol protein solubility set:

Assay: soluble on expression in E. coli; label from the status in PepcDB or PDB records

Sequence | soluble on expression in E. coli
MAGDPMNEEQRKSTSIDILAERDKKTKDYSKYFEHVYQPPSLKEARKRGKEEVNYNDDFQIDEKYRNMGQGKTFLIKTYGCQMNAHDTEVMAGILGALGYTPTEDINHADVILINTCAIRENAENKVFSEIGNLKHLKKEKPETVIGVCGCMSQEESVVNKILKSYQNVDMIFGTHNIHRLPEILEEAYLSKAMVVEVWSKEGDVIENLPKVREGNIKAWVNIMYGCDKFCTYCIVPFTRGKERSRRPEDIIDEVRDLARQGYKEITLLGQNVNAYGKDIDGLAYGLGDLLEDISKIDIPRVRFTTSHPWDFTDRMIEVIANGGNIVPHVHLPVQSGNNAVLKIMGRKYTRESYLDLVNRIKTHIPNVALTTDIIVGYPNETDEQFEETLTLYDEVEFEHAYTYIYSQRDGTPAAKMNDNVPLDVKKDRLQQLNKKVACYSERAMQQYEGQTVQVLCEGVSKKDDTVLSGYTSKNKLVNFKAPKSMIGKIVNVYIDEAKQFSLNGTFISVNDKTVVTQLEHHHHHH | soluble
MAGDPMRRPHMSDATLVYDDDCGFCTWWADFIGERSDLEIVGFSALGDDLLERLPDDYESCSHLVTEEDVYSCGKSIETALTYTELGKPARPLVSFLRQFEDYERFRERAYRQVADNRSKWGKVMSKTPPARRDNSDLEHHHHHH | not soluble
MAGDPMSESLAQYQEDLRRFSDELIRIQTPIKILDAIKWPREMEERFLSSKGTVLPAIKQDFYQNIALPFDPAKTQAELLSLKNDIHRRLGKKDKLGKLLVANVDQYRLVVDMLGHRGTPTFGKLSQELYGSASHRLHGDRHTLRQLGDRLSYIFSLPAARHMNKHHPKIISAPEAVNVLSQRLEKYFHSDDMRVRLSDGIVSDAAVGGDTVKLNSKAMFSESDLNVYEVHEGWVHVGTTLNGRAQPHATWLSVGSPRVAATQEGLAVLLEMLTLSSNPGRARRISDRVAAVDMAENGADFIEVFNYFRELNLSAKDSYRVTQRVFRGGMVEGGSFFTKDISYVRGYVENINFIRSAITSGLPELIPMLFLGKLAIEDIPVLYQACQEGILTPPKYLPPMFDNFSGLYAWFGFASGLAGIDLKGVQRHFTRLFKDVPSIDPSLELLDDTEFDNNSDAAALEHHHHHH | soluble
MAGDTTITVVGNLTADPELRFTPSGAAVANFTVASTPRMFDRQSGEWKDGEALFLRCNIWREAAENVAESLTRGSRVIVTGRLKQRSFETREGEKRTVVEVEVDEIGPSLRYATAKVNKASRSGGGGGGFGSGGGGSRQSEPKDDPWGSAPASGSFSGADDEPPF | soluble
MAGGGNFIARVISYVANEFIVNGLANSHAFQRFAVRTSKRIENLSKMAAENREKVAQQMEEFAKNIDVIHEETLIILVWNLKTSVNHMGQLK | not soluble
MAGGLFKLMKDKSVDHSHLHKDHSIHHPTPPRSFFSSSSLAVHPNVETAQSSSEEDLRMPNIKVFSGSSHPDLSTRICERLQLEVSKASLKKFSNKETNVEIGESVRGEDVYIIQSAAGEINDNLMELLIMINACKIASSCRVAAVIPAFPYARQDKKDKSRAPISAKLVANMLSVAGADHIITMDLHASQIQGFFDIPVDNLYAEPAILKYIKESIPNWQTSVIVSPDAGGAKRVTSIADRLNVDFALIHKESKRANEVEKMTLVGSVEGKVAILVDDMADTCGTICMAADKLVEAGADKVYAFCVHGIFSGPALTRLNASKFEAVVVTNTIPQDENMKKCSKIQCIDISMILAEAIRRTHNGESVSYLFSHVPIC | not soluble
MAGMHFLVGISTENYVILAADKATFAYGAILADSENDKEYRLGKKLTMMCIGEEGDVAQFGDWTKRNLQLYSVRNGYEVSPSCAHHFVRRSIAEGLRSQDHYTVDVLIGGYDDKEDKAFLGSVDYLANGLGQQPYLFRGFCGRFCYAIMDREYKKDMTEAEGLALMNKCIGEAKRRFVANIPGYKVVIIDKKGYRKLDDVLF | soluble
MAGQIRMSPEELKSKATRYGQGANQIEDILRQLQNLQNELRGEWEGRAFEGFDQQFNQLKPKVQNFAQLLQEINMQLNKTAEAVARHDEDLSRNFGLQ | not soluble
MAGSATVEKRLDFGLLGPLQMTIDGTPVPSGTPKQRAVLAMLVINRNRPVGVDALITALWEEWPPSGARASIHSYVSNLRKLLGGAGIDPRVVLAAAPPGYRLSIPDNTCDLGRFVAEKTAGVHAAAAGRFEQASRHLSAALREWRGPVLDDLRDFQFVEPFATALVEDKVLAHTAKAEAEIACGRASAVIAELEALTFEHPYREPLWTQLITAYYLSDRQSDALGAYRRVKTTLADDLGIDPGPTLRALNERILRQQPLDAKKSAKTTAAGTVTVLDQRTMASGQQAVAYLHDIASGRGYPLQAAATRIGRLHDNDIVLDSANVSRHHAVIVDTGTNYVINDLRSSNGVHVQHERIRSAVTLNDGDHIRICDHEFTFQISAGTHGGT | soluble
MAGTGLLALRTLPGPSWVRGSGPSVLSRLQDAAVVRPGFLSTAEEETLSRELEPELRRRRYEYDHWDAAIHGFRETEKSRWSEASRAILQRVQAAAFGPGQTLLSSVHVLDLEARGYIKPHVDSIKFCGATIAGLSLLSPSVMRLVHTQEPGEWLELLLEPGSLYILRGSARYDFSHEILRDEESFFGERRIPRGRRISVICRSLPEGMGPGESGQPPPACLEHHHHHH | soluble
MAGVSTTQSGAIGVDRTQYMSSLVPEQALVQEAGQQYAEIVQEARAKGLLDRDPAQLSRVRAISQRLIAQTGVFRADAANWPWEVHVLSVDEVNAWCMPGGKIAVYTGLLAHIKPTDDELAAVLGHEIAHALREHARERVSQQMATSIGLSVLSMATGSPGASDLGGKLTEVMFTLPNSRTHETEADRMGVELAARAGFDPRAAVTLWQKMGAADGNAPPEFLSTHPSASTRIGELQQALQKVLPLYEQARGQAAKLEHHHHHH | not soluble
MAGWVAKRFWKEASVAEEPGGFAVLLDGRGVRTPAKRPLILPTCALAEAVASEWQAQEGEVRPETMPVTRSANSALDKVAPQFDEVTEMLAAYGGTDLLCYRATAPEALVARQARAWDPVLAWAAERFEAPLETTAGVMHQAQPEASLTRLAEHVRSFSPFQVAGFHDLVAISGSLILGLGVTEGHLLPEEAWELSRVDESWQIEQWGADEEAAEIEAFRRTAFLQAARFYALCGKLAAALEHHHHHH | not soluble
MAHCLHPEKFFPVVKSVALPPGSLNGKVALVTGGGTGLGKAIATTFAHLGASVAIAARRLDVLEKTADEIRSSTGGVCEPFQMDVKDPAKVAKAFDAVEKKLGHTPDILINNAAGNFIMATERLSPNAYGTIIDIVLKGTLHVTTELGRRCIQQKRGASVLSITTLYAQSGAPFVVPSAVSKAGVENMTKSLASEWAKHGLRFNAIAPGPIPTEGAFGRLFAGELKDSGDAMKASVPVGRLGHPEEIANLAAFMSSDFMSWMNGAIIDFDGGQQHIHHGSHMGQFLHEWDNEKWEETENLIRGRTGKEKKSKL | soluble
MAHDLQKMMDGELVRLQLEIKKEQERRLAEKMIPVFGVWQSPINQYEFADPEQAISCAAGLLDKVLREVKDDLSKEGGLQGWNGNLLRIYVQHVNESDFAVLQPYLKDK | not soluble
MAHFGKLALSVTAAAVLALSAQARDQIKMAGSSTVYPFSSYVAEEFGATTGNKTPVVESLGTGGGFKVFCAGDGLDTTDIANASRPIKKSEFDNCVANGVTDITGVMIGYDGISIAQSKANAAINFKIEHLFLALAEEVPVDGKLVKNPYKTWNQVDASLPNRPIVVYGPPTTS | not soluble
MAHHHHHHGTEKTPDDVFKLAKDEKVEYVDVRFCDLPGIMQHFTIPASAFDKSVFDDGLAFDGSSIRGFQSIHESDMLLLPDPETARIDPFRAAKTLNINFFVHDPFTLEPYSRDPRNIARKAENYLISTGIADTAYFGAEAEFYIFDSVSFDSRANGSFYEVDAISGWWNTGAATEADGSPNRGYKVRHKGGYFPVAPNDQYVDLRDKMLTNLINSGFILEKGHHEVGSGGQAEINYQFNSLLHAADDMQLYKYIIKNTAWQNGKTVTFMPKPLFGDNGSGMHCHQSLWKDGAPLMYDETGYAGLSDTARHYIGGLLHHAPSLLAFTNPTVNSYKRLVPGYEAPINLVYSQRNRSACVRIPITGSNPKAKRLEFRSPDSSGNPYLAFSAMLMAGLDGIKNKIEPQAPVDKDLYELPPEEAASIPQTPTQLSDVIDRLEADHEYLTEGGVFTNDLIETWISFKRENEIEPVNIRPHPYEFALYYDV | soluble
MAHHHHHHMAACRSTPLTSSPVACEQAHRQPTIVDRDYEASKYWKSHRCRRIPKATGLTAVLITNPGLSVFTHQPHSRTNTVQGRKSCQGQQTTGRQLQISGNRAVADSVPRSQKNSVTAAWSV | not soluble
